The values that follow come from patent publication US8865222B2, “Beta-casein assemblies for enrichment of food and beverages and methods of preparation thereof” (Technion Research and Development Foundation Ltd., priority 2008, dated 2014).

Where “and” joins values, the source holds several entries; their conditions need not be identical. Identical values can stand only once.

The nature of the data set: Small angle X-ray scattering (SAXS) of beta-casein micellar solutions. In kind it is physicochemical. The settings on record: for aggregation number: pH 6.7, 0.05M NaCl. The method, then:
Small Angle X-ray Scattering (SAXS): The small angle x-ray scattering equipment consisted of a SAXSess camera (Anton-Paar, Graz, Austria) connected to an x-ray generator (Philips, PW1730/10) operating at 40 kV and 50 mA with a sealed-tube Cu anode. A Göbel mirror was used to convert the divergent polychromatic x-ray beam into a focused line-shaped beam of Cu Kα radiation (λ=0.154 nm). The 2D scattering pattern was recorded by a PI-SCX fused fiber optic taper CCD camera from Princeton Instruments, which is a division of Roper Scientific, Inc. (Trenton, N.J., USA). The used CCD detector features a 2084×2084 array with 24×24 μm pixel size (chip size: 50×50 mm). The CCD was operated at −30° C. with 10° C. water-assisted cooling to reduce the thermally generated charge. Cosmic ray correction and background subtraction were performed on the 2D image before further data processing. The 2D image was integrated into the one-dimensional scattering function within a band of 10 mm. The measurement time was 30 min for each scattering curve (6 images of 5 minutes were taken to assist the cosmic ray correction).
Determination of the Beta-Casein Assemblies Molecular Weights.
The molecular weight of the scattering aggregates were calculated according to Eq. 1:
[formula] where M is the molecular weight, dΣ(0)/dΩ (cm^−1) the forward scattering intensity at q=0, c (g/cm^3) the beta-casein concentration, NA the Avogadro number, and ΔρM (cm/g) the scattering length difference per mass, given by: ΔρM=Δρ v (2)
The scattering length difference Δρ (cm^−2) was calculated using the known chemical composition of the protein and the solvent, and v (cm^3/g), the specific volume of the protein in the solution that was calculated via density measurement of the solvent and the solution. The micelle aggregation number was then calculated by dividing the molecular weight of the micelles determined with Eq. 1, by the molecular weight of a single protein molecule.
For a particle of arbitrary shape with a scattering density difference of Δρ(r), the pair distance distribution function p(r) (PDDF) is given by: p(r)=r^2Δ ρ^2(r) (3) where Δ ρ^2(r) is the convolution square of Δρ(r) averaged for all directions in space. The PDDF is related to the scattered intensity I(q) by a Fourier transformation, and it enables the determination of the overall shape and size of the scattering objects.
[formula] where q is the magnitude of the scattering vector q, defined as
[formula] λ is the wavelength of the incident radiation and θ is the angle between the scattered and incident beam. The function ƒ(r)=p(r)/r (6) is useful to identify flat plate-like particles, although it has no direct physical meaning. For lamellae, this function starts with a linearly increasing part and becomes almost flat when r is equal to the thickness of the lamella. For flat particles with a finite base area, the outer part decreases linearly because of boundary losses. The thickness of the lamella can then be read from the transition point. […] The standard error of the analytical ultracentrifugation data is 5%, and that of the Rg is 4%. The analysis supports the statistical significance and validity of the results.
• Characterization of the beta-casein micelles by SAXS: We have applied SAXS measurements to determine the shape and dimensions of the micelles at low pH and at neutral pH, more precisely, and to evaluate the micelle molecular weight (i.e., the aggregation number). The scattering curves of 20 mg/mL beta-casein in lactic acid solution (pH 2.6, IS 0.0022) at different temperatures are shown in FIG. 3a. […] Consequently, the calculated Pair Distance Distribution Functions (PDDF), are also similar (FIG. 3b). The maximum micelle dimension is approximately 25 nm at all temperatures. The area under the PDDF curve, which is proportional to the weight of one particle, is almost constant. To calculate the aggregation number, the density of the solvent and the solution was measured at various temperatures (Table 2). […]

B1: beta-casein: lyophilized bovine beta-casein (~24 kDa milk protein) self-assembled into nano-sized micelles at low or neutral pH (protein, UniProt P02666 16-224, looked up)
Beta-casein: RELEELNVPGEIVESLSSSEESITRINKKIEKFQSEEQQQTEDELQDKIHPFAQTQSLVYPFPGPIPNSLPQNIPPLTQTPVVVPPFLQPEVMGVSKVKEAMAPKHKEMPFPKYPVEPFTESQSLTLTDVENLHLPLPLLQSWMHQPHQPLPPTVMFPPQSVLSLSQSKVLPVPQKAVPYPQRDMPIQAFLLYQEPVLGPVRGPFPIIV
With B1, for the setting “20 mg/mL, pH 2.6, IS 0.0022, all temperatures 4-40 °C”, the maximum micelle dimension result is “approximately 25 nm”. The aggregation number reads like this: (20 mg/mL, 1 °C) 7; (20 mg/mL, 60 °C) 210. The Nagg came out at 8 (pH 2.6, 4 °C, 2 wt % beta-casein, SAXS); 10 (pH 2.6, 16 °C, SAXS); 11 (pH 2.6, 25 °C, SAXS); 9 (pH 2.6, 40 °C, SAXS). In addition, the aggregation state result was “monomers” (pH 2.6, 25 °C, 0.1 wt %) and “dimers” (pH 2.6, 25 °C, 0.25 wt %). Further, the CMC (pH 2.6, 25 °C, SAXS) is on record as 0.1-0.2 wt %. Also, the “thickness of the particles” value (pH 2.6, all temperatures, from f(r) transition point) is recorded as roughly 3.5 nm. The “Micelle Dimensions” value (pH 2.6, as a function of temperature 4-40 °C) was “Constant”. Also, where the note is “pH 7.0, ionic strength 0.1, depending on protein concentration”, the “typical sizes of beta-casein micelles” value is 13-15 nm and 22-25 nm.
